# T1: FRETS-VWF73, P04275
# T1 chain: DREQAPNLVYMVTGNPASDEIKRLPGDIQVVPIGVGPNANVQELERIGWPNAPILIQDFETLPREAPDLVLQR
# Biological target: T2, von Willebrand factor derived from human plasma (human, UniProt P04275 764-2813)
# T2 construct: mature; also called VWF; natural substrate VWF
# Test: ELISA, plasma VWF immobilized on plate, relative to wild type W688X
# Protocol: Each of the purified mutants of Example 3 was evaluated for their binding ability to VWF derived from human plasma immobilized on ELISA plate as described in Non-patent reference 8. The concentration was normalized by sandwich ELISA using the anti-human ADAMTS-13 rabbit polyclonal antibody and an HRP labeled form of the anti-FLAGM2 murine monoclonal antibody (SIGMA CORPORATION) as described above and the VWF binding ability per unit concentration was quantified. Finally, the mutants were evaluated for a relative activity as compared to the specific activity of wild type W688X with no alanine substitution, the specific activity of which is 1.
row,binding result,Binder
1,binds,"ADAMTS-13W688X mutant D343A (enzyme, human, UniProt Q76LX8 75-688, looked up, Disintegrin-like domain mutant; also called D343(10); not shown: C-terminal FLAG tag) AAGGILHLELLVAVGPDVFQAHQEDTERYVLTNLNIGAELLRDPSLGAQFRVHLVKMVILTEPEGAPNITANLTSSLLSVCGWSQTINPEDDTDPGHADLVLYITRFDLELPDGNRQVRGVTQLGGACSPTWSCLITEDTGFDLGVTIAHEIGHSFGLEHDGAPGSGCGPSGHVMASDGAAPRAGLAWSPCSRRQLLSLLSAGRARCVWDPPRPQPGSAGHPPDAQPGLYYSANEQCRVAFGPKAVACTFAREHLDMCQALSCHTDPLAQSSCSRLLVPLLDGTECGVEKWCSKGRCRSLVELTPIAAVHGRWSSWGPRSPCSRSCGGGVVTRRRQCNNPRPAFGGRACVGADLQAEMCNTQACEKTQLEFMSQQCARTDGQPLRSSPGGASFYHWGAAVPHSQGDALCRHMCRAIGESFIMKRGDSFLDGTRCMPSGPREDGTLSLCVSGSCRTFGCDGRMDSQQVWDRCQVCGGDNSTCSPRKGSFTAGRAREYVTFLTVTPNLTSVYIANHRPLFTHLAVRIGGRYVVAGKMSISPNTTYPSLLEDGRVEYRVALTEDRLPRLEEIRIWGPLQEDADIQVYRRYGEEYGNLTRPDITFTYFQPKPRQAWVW"
2,binds,"ADAMTS-13W688X mutant D480A (enzyme, human, UniProt Q76LX8 75-688, looked up, Cysteine-rich domain mutant; also called D480(24); not shown: C-terminal FLAG tag) AAGGILHLELLVAVGPDVFQAHQEDTERYVLTNLNIGAELLRDPSLGAQFRVHLVKMVILTEPEGAPNITANLTSSLLSVCGWSQTINPEDDTDPGHADLVLYITRFDLELPDGNRQVRGVTQLGGACSPTWSCLITEDTGFDLGVTIAHEIGHSFGLEHDGAPGSGCGPSGHVMASDGAAPRAGLAWSPCSRRQLLSLLSAGRARCVWDPPRPQPGSAGHPPDAQPGLYYSANEQCRVAFGPKAVACTFAREHLDMCQALSCHTDPLDQSSCSRLLVPLLDGTECGVEKWCSKGRCRSLVELTPIAAVHGRWSSWGPRSPCSRSCGGGVVTRRRQCNNPRPAFGGRACVGADLQAEMCNTQACEKTQLEFMSQQCARTDGQPLRSSPGGASFYHWGAAVPHSQGAALCRHMCRAIGESFIMKRGDSFLDGTRCMPSGPREDGTLSLCVSGSCRTFGCDGRMDSQQVWDRCQVCGGDNSTCSPRKGSFTAGRAREYVTFLTVTPNLTSVYIANHRPLFTHLAVRIGGRYVVAGKMSISPNTTYPSLLEDGRVEYRVALTEDRLPRLEEIRIWGPLQEDADIQVYRRYGEEYGNLTRPDITFTYFQPKPRQAWVW"
3,binds,"ADAMTS-13W688X mutant R488A (enzyme, human, UniProt Q76LX8 75-688, looked up, Cysteine-rich domain mutant; also called R488(26); not shown: C-terminal FLAG tag) AAGGILHLELLVAVGPDVFQAHQEDTERYVLTNLNIGAELLRDPSLGAQFRVHLVKMVILTEPEGAPNITANLTSSLLSVCGWSQTINPEDDTDPGHADLVLYITRFDLELPDGNRQVRGVTQLGGACSPTWSCLITEDTGFDLGVTIAHEIGHSFGLEHDGAPGSGCGPSGHVMASDGAAPRAGLAWSPCSRRQLLSLLSAGRARCVWDPPRPQPGSAGHPPDAQPGLYYSANEQCRVAFGPKAVACTFAREHLDMCQALSCHTDPLDQSSCSRLLVPLLDGTECGVEKWCSKGRCRSLVELTPIAAVHGRWSSWGPRSPCSRSCGGGVVTRRRQCNNPRPAFGGRACVGADLQAEMCNTQACEKTQLEFMSQQCARTDGQPLRSSPGGASFYHWGAAVPHSQGDALCRHMCAAIGESFIMKRGDSFLDGTRCMPSGPREDGTLSLCVSGSCRTFGCDGRMDSQQVWDRCQVCGGDNSTCSPRKGSFTAGRAREYVTFLTVTPNLTSVYIANHRPLFTHLAVRIGGRYVVAGKMSISPNTTYPSLLEDGRVEYRVALTEDRLPRLEEIRIWGPLQEDADIQVYRRYGEEYGNLTRPDITFTYFQPKPRQAWVW"
4,binds,"ADAMTS-13W688X mutant E327A (enzyme, human, UniProt Q76LX8 75-688, looked up, Disintegrin-like domain mutant; also called E327(7); E327 mutant; not shown: C-terminal FLAG tag) AAGGILHLELLVAVGPDVFQAHQEDTERYVLTNLNIGAELLRDPSLGAQFRVHLVKMVILTEPEGAPNITANLTSSLLSVCGWSQTINPEDDTDPGHADLVLYITRFDLELPDGNRQVRGVTQLGGACSPTWSCLITEDTGFDLGVTIAHEIGHSFGLEHDGAPGSGCGPSGHVMASDGAAPRAGLAWSPCSRRQLLSLLSAGRARCVWDPPRPQPGSAGHPPDAQPGLYYSANEQCRVAFGPKAVACTFARAHLDMCQALSCHTDPLDQSSCSRLLVPLLDGTECGVEKWCSKGRCRSLVELTPIAAVHGRWSSWGPRSPCSRSCGGGVVTRRRQCNNPRPAFGGRACVGADLQAEMCNTQACEKTQLEFMSQQCARTDGQPLRSSPGGASFYHWGAAVPHSQGDALCRHMCRAIGESFIMKRGDSFLDGTRCMPSGPREDGTLSLCVSGSCRTFGCDGRMDSQQVWDRCQVCGGDNSTCSPRKGSFTAGRAREYVTFLTVTPNLTSVYIANHRPLFTHLAVRIGGRYVVAGKMSISPNTTYPSLLEDGRVEYRVALTEDRLPRLEEIRIWGPLQEDADIQVYRRYGEEYGNLTRPDITFTYFQPKPRQAWVW"
5,binds,"ADAMTS-13W688X mutant R660A (enzyme, human, UniProt Q76LX8 75-688, looked up, Spacer domain mutant; also called R660(68); not shown: C-terminal FLAG tag) AAGGILHLELLVAVGPDVFQAHQEDTERYVLTNLNIGAELLRDPSLGAQFRVHLVKMVILTEPEGAPNITANLTSSLLSVCGWSQTINPEDDTDPGHADLVLYITRFDLELPDGNRQVRGVTQLGGACSPTWSCLITEDTGFDLGVTIAHEIGHSFGLEHDGAPGSGCGPSGHVMASDGAAPRAGLAWSPCSRRQLLSLLSAGRARCVWDPPRPQPGSAGHPPDAQPGLYYSANEQCRVAFGPKAVACTFAREHLDMCQALSCHTDPLDQSSCSRLLVPLLDGTECGVEKWCSKGRCRSLVELTPIAAVHGRWSSWGPRSPCSRSCGGGVVTRRRQCNNPRPAFGGRACVGADLQAEMCNTQACEKTQLEFMSQQCARTDGQPLRSSPGGASFYHWGAAVPHSQGDALCRHMCRAIGESFIMKRGDSFLDGTRCMPSGPREDGTLSLCVSGSCRTFGCDGRMDSQQVWDRCQVCGGDNSTCSPRKGSFTAGRAREYVTFLTVTPNLTSVYIANHRPLFTHLAVRIGGRYVVAGKMSISPNTTYPSLLEDGRVEYRVALTEDRLPRLEEIRIWGPLQEDADIQVYRAYGEEYGNLTRPDITFTYFQPKPRQAWVW"

# Biological target: T1, FRETS-VWF73, P04275
# Test: not given
row,Binder,"cleaving activity to FRETS-VWF73, relative activity against wild type W688X"
1,ADAMTS-13W688X mutant R326A (protein) AAGGILHLELLVAVGPDVFQAHQEDTERYVLTNLNIGAELLRDPSLGAQFRVHLVKMVILTEPEGAPNITANLTSSLLSVCGWSQTINPEDDTDPGHADLVLYITRFDLELPDGNRQVRGVTQLGGACSPTWSCLITEDTGFDLGVTIAHEIGHSFGLEHDGAPGSGCGPSGHVMASDGAAPRAGLAWSPCSRRQLLSLLSAGRARCVWDPPRPQPGSAGHPPDAQPGLYYSANEQCRVAFGPKAVACTFAAEHLDMCQALSCHTDPLDQSSCSRLLVPLLDGTECGVEKWCSKGRCRSLVELTPIAAVHGRWSSWGPRSPCSRSCGGGVVTRRRQCNNPRPAFGGRACVGADLQAEMCNTQACEKTQLEFMSQQCARTDGQPLRSSPGGASFYHWGAAVPHSQGDALCRHMCRAIGESFIMKRGDSFLDGTRCMPSGPREDGTLSLCVSGSCRTFGCDGRMDSQQVWDRCQVCGGDNSTCSPRKGSFTAGRAREYVTFLTVTPNLTSVYIANHRPLFTHLAVRIGGRYVVAGKMSISPNTTYPSLLEDGRVEYRVALTEDRLPRLEEIRIWGPLQEDADIQVYRRYGEEYGNLTRPDITFTYFQPKPRQAWVW,the elevated enzymatic activity was observed
2,ADAMTS-13W688X mutant R568A (protein) AAGGILHLELLVAVGPDVFQAHQEDTERYVLTNLNIGAELLRDPSLGAQFRVHLVKMVILTEPEGAPNITANLTSSLLSVCGWSQTINPEDDTDPGHADLVLYITRFDLELPDGNRQVRGVTQLGGACSPTWSCLITEDTGFDLGVTIAHEIGHSFGLEHDGAPGSGCGPSGHVMASDGAAPRAGLAWSPCSRRQLLSLLSAGRARCVWDPPRPQPGSAGHPPDAQPGLYYSANEQCRVAFGPKAVACTFAREHLDMCQALSCHTDPLDQSSCSRLLVPLLDGTECGVEKWCSKGRCRSLVELTPIAAVHGRWSSWGPRSPCSRSCGGGVVTRRRQCNNPRPAFGGRACVGADLQAEMCNTQACEKTQLEFMSQQCARTDGQPLRSSPGGASFYHWGAAVPHSQGDALCRHMCRAIGESFIMKRGDSFLDGTRCMPSGPREDGTLSLCVSGSCRTFGCDGRMDSQQVWDRCQVCGGDNSTCSPRKGSFTAGRAAEYVTFLTVTPNLTSVYIANHRPLFTHLAVRIGGRYVVAGKMSISPNTTYPSLLEDGRVEYRVALTEDRLPRLEEIRIWGPLQEDADIQVYRRYGEEYGNLTRPDITFTYFQPKPRQAWVW,the elevated enzymatic activity was observed
3,ADAMTS-13W688X mutant R370A (protein) AAGGILHLELLVAVGPDVFQAHQEDTERYVLTNLNIGAELLRDPSLGAQFRVHLVKMVILTEPEGAPNITANLTSSLLSVCGWSQTINPEDDTDPGHADLVLYITRFDLELPDGNRQVRGVTQLGGACSPTWSCLITEDTGFDLGVTIAHEIGHSFGLEHDGAPGSGCGPSGHVMASDGAAPRAGLAWSPCSRRQLLSLLSAGRARCVWDPPRPQPGSAGHPPDAQPGLYYSANEQCRVAFGPKAVACTFAREHLDMCQALSCHTDPLDQSSCSRLLVPLLDGTECGVEKWCSKGACRSLVELTPIAAVHGRWSSWGPRSPCSRSCGGGVVTRRRQCNNPRPAFGGRACVGADLQAEMCNTQACEKTQLEFMSQQCARTDGQPLRSSPGGASFYHWGAAVPHSQGDALCRHMCRAIGESFIMKRGDSFLDGTRCMPSGPREDGTLSLCVSGSCRTFGCDGRMDSQQVWDRCQVCGGDNSTCSPRKGSFTAGRAREYVTFLTVTPNLTSVYIANHRPLFTHLAVRIGGRYVVAGKMSISPNTTYPSLLEDGRVEYRVALTEDRLPRLEEIRIWGPLQEDADIQVYRRYGEEYGNLTRPDITFTYFQPKPRQAWVW,the elevated enzymatic activity was observed
4,ADAMTS-13W688X mutant R659A (protein) AAGGILHLELLVAVGPDVFQAHQEDTERYVLTNLNIGAELLRDPSLGAQFRVHLVKMVILTEPEGAPNITANLTSSLLSVCGWSQTINPEDDTDPGHADLVLYITRFDLELPDGNRQVRGVTQLGGACSPTWSCLITEDTGFDLGVTIAHEIGHSFGLEHDGAPGSGCGPSGHVMASDGAAPRAGLAWSPCSRRQLLSLLSAGRARCVWDPPRPQPGSAGHPPDAQPGLYYSANEQCRVAFGPKAVACTFAREHLDMCQALSCHTDPLDQSSCSRLLVPLLDGTECGVEKWCSKGRCRSLVELTPIAAVHGRWSSWGPRSPCSRSCGGGVVTRRRQCNNPRPAFGGRACVGADLQAEMCNTQACEKTQLEFMSQQCARTDGQPLRSSPGGASFYHWGAAVPHSQGDALCRHMCRAIGESFIMKRGDSFLDGTRCMPSGPREDGTLSLCVSGSCRTFGCDGRMDSQQVWDRCQVCGGDNSTCSPRKGSFTAGRAREYVTFLTVTPNLTSVYIANHRPLFTHLAVRIGGRYVVAGKMSISPNTTYPSLLEDGRVEYRVALTEDRLPRLEEIRIWGPLQEDADIQVYARYGEEYGNLTRPDITFTYFQPKPRQAWVW,the elevated enzymatic activity was observed
